{"source": "paper PMC7237333", "molecules": {"B1": {"name": "RrMtnA (Rhodospirillum rubrum ATCC 11170) (protein)", "chain": "MNVKGTPTRTIWPAREGGAVWIIDQTRLPHEFVTQRLNDLGAVAHAIRAMLVRGAPLIGATAAYGVALGMAEDPSDEGLTRACQTLLATRPTAVNLRWAIEAMAESLAAVPPDQRAQAAWAKAGAICDEDVALNEAIGDHGLGIIKDLARTKGVEKGGEGPINILTHCNAGWLATVDWGTALAPLYKAHDAGLPIHVWVDETRPRNQGASLTAWELNSHGVPHTVIADNTGGHLMQHGLVDMVIVGTDRTTATGDVCNKIGTYLKALAAFDNAVPFYVALPGPTIDWTVNDGLREIPIEQRDAAEVTRVWGRTAAGALEWVTITPTGSPAANYAFDVTPARLITGLITERGVCAASAAGLAGLYPERAPAPVPAGSAAGKGAAATADGAL"}, "B2": {"name": "Bs MtnB (Bacillus subtilis subsp. subtilis str. 168) (protein)", "chain": "MAAKQERWRELAEVKRELAERDWFPATSGNLSIKVTDEPLTFLVTASGKDKRKETVEDFLLVDQNGEPAESGHSLKPSAETLLHTHLYNKTNAGCCLHVHTVNNNVISELYGDQKKITFKGQEIIKALGLWEENAEVTVPIIENPAHIPTLAALFAEEISEDSGAVLIRNHGITAWGKTAFEAKRVLEAYEFLFSYHLKLKTLEHQLVK"}, "B3": {"name": "BsMtnA (Bacillus subtilis subsp. subtilis str. 168) (protein)", "chain": "MTHSFAVPRSVEWKETAITILNQQKLPDETEYLELTTKEDVFDAIVTLKVRGAPAIGITAAFGLALAAKDIETDNVTEFRRRLEDIKQYLNSSRPTAINLSWALERLSHSVENAISVNEAKTNLVHEAIQIQVEDEETCRLIGQNALQLFKKGDRIMTICNAGSIATSRYGTALAPFYLAKQKDLGLHIYACETRPVLQGSRLTAWELMQGGIDVTLITDSMAAHTMKEKQISAVIVGADRIAKNGDTANKIGTYGLAILANAFDIPFFVAAPLSTFDTKVKCGADIPIEERDPEEVRQISGVRTAPSNVPVFNPAFDITPHDLISGIITEKGIMTGNYEEEIEQLFKGEKVH"}, "B4": {"name": "EcMtnA (Escherichia coli S88) (protein)", "chain": "MNIKGKHYRTVWVSGDGKAVEIIDQTKLPFKFEVVALTSAEMAATAIQDMWVRGAPLIGVVAAYGIALGMNHDASDMGLQRYYDLLIKTRPTAINLKWALDRMIDTLKDLCVSERKDVAWALAAEIAEEDVALCEQIGLHGAEVIREIAQKKPAGSVVNILTHCNAGWLATVDWGTALSPIYKAHENGIPVHVWVDETRPRNQGGLTAFELGSHGIPHTLIADNAGGHLMQHGDVDLCIVGTDRTTARGDVCNKIGTYLKALAAHDNHVPFYVALPSPTIDWTIEDGKSIPIEQRDGKEQSHVYGINPQGELSWVNTAPEGTRCGNYAFDVTPARYITGFITERGVCAASKSALADMFADLKSKALQGEQH"}}, "test_in_all_cases": "purified protein", "key": {"[1]": {"tested_on": "C[C@H]1O[C@@H](n2cnc3c(N)ncnc32)[C@H](O)[C@@H]1O", "details": "40 mM K-phosphate pH 7.8, 0.1 M MgCl2, 30 °C"}, "[2]": {"tested_on": "CSC[C@H]1O[C@@H](n2cnc3c(N)ncnc32)[C@H](O)[C@@H]1O", "details": "40 mM K-phosphate pH 7.8, 0.1 M MgCl2, 30 °C"}, "purified protein [3]": {"substrate": "O=P(O)(O)O[C@H]1O[C@H](CO)[C@@H](O)[C@H]1O", "format": "biochemical, Rhodospirillum rubrum", "details": "50 mM K-phosphate pH 7.8, 5 mM MgCl2, 0.3 mM CoCl2, 30 °C"}, "purified protein [4]": {"substrate": "C[C@@H](O)[C@@H](O)C(=O)COP(=O)(O)O", "format": "biochemical, Bacillus subtilis", "details": "35 °C probably (used for weak substrates); 35.0 °C"}, "purified protein [5]": {"substrate": "CSC[C@@H](O)[C@@H](O)C(=O)COP(=O)(O)O", "format": "biochemical, Bacillus subtilis", "details": "30 °C (also performed at 35 °C)"}, "purified protein [6]": {"substrate": "CSC[C@H]1O[C@H](OP(=O)(O)O)[C@H](O)[C@@H]1O", "format": "biochemical, Bacillus subtilis", "details": "50 mM K-phosphate pH 7.8, 5 mM MgCl2, 0.3 mM CoCl2, 30 °C"}, "purified protein [7]": {"substrate": "C[C@H]1O[C@H](OP(=O)(O)O)[C@H](O)[C@@H]1O", "format": "biochemical, Escherichia coli", "details": "50 mM K-phosphate pH 7.8, 5 mM MgCl2, 0.3 mM CoCl2, 30 °C"}, "purified protein [8]": {"substrate": "CSC[C@H]1O[C@H](OP(=O)(O)O)[C@H](O)[C@@H]1O", "format": "biochemical, Escherichia coli", "details": "50 mM K-phosphate pH 7.8, 5 mM MgCl2, 0.3 mM CoCl2, 30 °C"}}, "data": [{"molecule": "EcMtnN (Escherichia coli K-12)", "values": [{"measurement": "Km", "setting": "[1]", "value": 4.7, "unit": "µM"}, {"measurement": "kcat", "setting": "[1]", "value": 57, "unit": "s⁻¹"}, {"measurement": "kcat/Km", "setting": "[1]", "value": "1.2e+07", "unit": "M⁻¹ s⁻¹"}, {"measurement": "Km", "setting": "[2]", "value": 0.83, "unit": "µM"}, {"measurement": "kcat", "setting": "[2]", "value": 150, "unit": "s⁻¹"}, {"measurement": "kcat/Km", "setting": "[2]", "value": "1.8e+08", "unit": "M⁻¹ s⁻¹"}]}, {"molecule": "B1", "values": [{"measurement": "kcat", "setting": "purified protein [3]", "value": 0.03, "unit": "s⁻¹"}, {"measurement": "kcat/Km", "setting": "purified protein [3]", "value": "< 20", "unit": "M⁻¹ s⁻¹"}]}, {"molecule": "B2", "values": [{"measurement": "Km", "setting": "purified protein [4]", "value": 315, "unit": "µM"}, {"measurement": "kcat", "setting": "purified protein [4]", "value": 0.053, "unit": "s⁻¹"}, {"measurement": "kcat/Km", "setting": "purified protein [4]", "value": 200, "unit": "M⁻¹ s⁻¹"}, {"measurement": "Km", "setting": "purified protein [5]", "value": 24, "unit": "µM"}, {"measurement": "kcat", "setting": "purified protein [5]", "value": 16, "unit": "s⁻¹"}, {"measurement": "kcat/Km", "setting": "purified protein [5]", "value": 670000, "unit": "M⁻¹ s⁻¹"}]}, {"molecule": "B3", "values": [{"measurement": "Km", "setting": "purified protein [6]", "value": 114, "unit": "µM"}, {"measurement": "kcat", "setting": "purified protein [6]", "value": 3.9, "unit": "s⁻¹"}, {"measurement": "kcat/Km", "setting": "purified protein [6]", "value": 35000, "unit": "M⁻¹ s⁻¹"}]}, {"molecule": "B4", "values": [{"measurement": "Km", "setting": "purified protein [7]", "value": 222, "unit": "µM"}, {"measurement": "kcat", "setting": "purified protein [7]", "value": 2.02, "unit": "s⁻¹"}, {"measurement": "kcat/Km", "setting": "purified protein [7]", "value": 9100, "unit": "M⁻¹ s⁻¹"}, {"measurement": "Km", "setting": "purified protein [8]", "value": 50, "unit": "µM"}, {"measurement": "kcat", "setting": "purified protein [8]", "value": 0.49, "unit": "s⁻¹"}, {"measurement": "kcat/Km", "setting": "purified protein [8]", "value": 9800, "unit": "M⁻¹ s⁻¹"}]}]}
